Experimental data from the supplement of paper PMC10567573.

B1: GNB5 (parent)
chain: DINSVRYYPSGDAFASGSDDATCR
B2: DVL3 (parent)
chain: HPDPAPFCADNPSELPPPMERTGG
B3: SAT2 (parent)
chain: LTEAEGWHFFCFQGEATRKLAGK

Variants of: B1
Assay: protein stability index of a GFP-peptide fusion (GPS, HEK-293T) (PSI 1-6); higher = more stable
Conditions: c terminus: a fixed tail appended
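Further: lentivirally expressed fusions sorted by FACS into six bins by GFP to DsRed ratio, PSI derived from sequencing read proportions per bin multiplied by bin number.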

Protein stability index, by site and new letter:
T22: S 3.91 | K 4.07 | D 3.76 | W 3 | M 3.47 | F 3.42 | I 3.84 | N 4.01 | H 4.06 | V 3.8 | P 3.56 | G 4.05 | R 3.57 | Q 4.15 | L 3.72 | E 4.86 | C 3.65 | Y 2.94 | A 3.92
D20: P 3.4 | E 3.94 | M 3.13 | Q 3.69 | C 3.53 | S 3.47 | W 2.16 | L 3.15 | H 3.04 | A 3.44 | G 3.61 | Y 2.6 | F 2.5 | K 3.06 | R 3.2 | N 3.42 | T 3.58 | I 3.14 | V 3.27
A21: F 3.3 | N 4.16 | Y 3.19 | D 4.34 | M 3.44 | G 3.63 | T 3.79 | Q 3.98 | R 3.63 | V 3.72 | S 3.91 | P 4.16 | C 3.82 | H 3.62 | W 2.79 | L 3.82 | K 3.8 | E 4.38 | I 3.44
R24: V 3.92 | S 4.12 | M 4.03 | N 3.59 | T 4.41 | F 3.51 | Q 4.68 | D 4.32 | K 4.19 | P 4.3 | I 3.77 | E 4.71 | L 3.63 | Y 3.99 | G 4.59 | W 3.53 | H 4.29 | C 4.06 | A 4.03
C23: A 4.53 | P 4.14 | Q 4.13 | D 4.48 | E 4.74 | H 4.3 | W 3.14 | I 4 | F 3.95 | N 3.95 | M 3.62 | T 4.55 | L 3.95 | V 3.87 | G 4.39 | S 4.05 | R 3.92 | Y 3.9 | K 4.41
D19: G 3.79 | Q 3.75 | V 2.69 | R 3.06 | W 3.03 | N 3.2 | S 3.4 | L 3.14 | I 3.03 | M 2.95 | T 3.25 | P 3.4 | Y 2.62 | K 3.7 | H 3.12

Variants of: B2
Assay: as above
Conditions: c terminus: a fixed tail appended

Protein stability index: each site, then its substitutions
P2: Y 3.84 | D 5.12 | L 1.93 | S 3.51 | K 5.1 | A 2.08 | Q 1.54 | R 4.33 | C 2.28 | T 2.27 | F 4.57 | G 5.4 | E 4.46 | H 3.19 | M 2.04 | W 3.03 | N 4.74
T22: K 2.85 | D 3.31 | V 2.02 | A 3.02 | E 2.88 | R 2.58 | Q 2.78 | M 2.96 | G 2.5 | W 2.22 | L 2.94
C8: W 2.74 | G 4.65 | R 2.62 | E 5.49 | V 2.84
P18: A 2.48 | V 3.15 | G 2.79 | Y 2.61 | M 2.68 | W 2.35 | E 3.32 | T 3.12 | S 3.05 | N 3.2 | I 2.82 | F 2.7 | D 3.27 | K 2.53 | C 2.94 | R 2.8 | H 2.69 | L 2.95 | Q 3.42
P12: W 2.17 | L 3.24 | R 2.95 | V 2.3 | N 2.42 | Q 2.86 | M 3.54 | K 2.88 | E 3.19
A9: G 3.27
F7: W 2.21 | R 5.23
H1: K 5.2 | R 4.98 | L 5.58 | E 5.45 | M 4.93
E20: G 1.73
E14: G 2.65
N11: L 2.59
P6: A 2.69 | V 2.73 | L 2.83 | R 2.91 | S 3.14 | G 3.57 | E 4.91 | M 2.83 | I 3 | K 3.33 | N 4.83 | D 5.21 | F 2.48 | T 3.92 | H 3.46 | Y 2.46 | Q 4.12 | W 3.3 | C 3.01
P4: C 4.85 | N 5.35 | F 4.71 | T 4.9 | I 4.99 | D 5.64 | R 4.78 | L 4.8 | V 5.14 | K 5.4 | Q 5.3 | G 4.94 | A 4.6 | E 5.24 | M 5.22 | Y 4.58 | H 4.84 | S 5.24 | W 5.19
A5: N 3.93 | S 2.54 | D 3.82 | C 2.75 | W 2.41 | E 3.91 | Q 3.42 | L 2.77 | V 3.62 | Y 3.11 | K 2.7 | I 2.77 | F 2.58 | R 2.29 | M 1.82 | G 2.87
G24: S 3.1
P17: H 2.61 | A 2.73 | Q 3.02 | G 2.6 | D 2.93 | S 2.92 | V 2.82 | N 2.65 | F 2.4 | Y 2.86 | K 2.92 | I 2.63 | M 2.54 | L 2.76 | E 3.41 | R 2.62 | W 2.54 | C 2.52
D3: R 4.13 | W 2.81 | M 3.42 | V 3.39
P16: M 3.02 | W 2.17 | G 3.1 | I 2.7 | S 3.19 | L 2.42 | H 2.58 | A 3.04 | C 2.38 | V 2.9 | E 3.09 | R 2.28 | Q 3.59 | D 2.9 | K 2.19
G23: M 2.62 | R 2.89 | V 2.47 | W 2.07

Variants of: B3
Assay: as above
Conditions: c terminus: native

Protein stability index: each site, then its substitutions
A4: F 1.31 | G 2.68 | C 1.45 | E 3.14 | D 2.37 | H 3
T2: H 2.32 | Q 2.48 | A 1.38 | K 2.14 | D 2.97 | M 2.71 | S 2.34 | Y 1.56 | C 1.99 | E 3.48 | P 2.12 | I 3.08 | F 1.8 | W 1.11 | G 1.76 | N 2.75 | R 2.14
L1: D 3.43 | H 1.48 | A 2.58 | K 2.81 | V 2.22 | Q 3.47 | M 2.34 | I 1.79 | S 3.02 | G 4.09 | C 2.48 | T 2.33 | R 2.09 | N 3.57 | E 3.73
E3: L 1.58 | W 1.37 | S 1.75 | R 1.43 | P 1.74 | H 1.67 | Q 1.82 | F 1.64 | Y 2.18 | G 1.78 | T 2.11 | N 1.48 | K 1.25 | M 2.56 | I 3.97 | C 1.89 | D 2.49 | A 1.79
